This passage reports Kd results from patent US20210388110A1 (published 2021).

The test has as its target T1, soluble human CD3ε chain (human, UniProt P07766 23-126, limits assumed).
T1 construct: the text says soluble human CD3ε chain; also called human CD3 epsilon chain
As to the kind of experiment: SPR (Biacore). Background: SPR reads the build-up and loss of mass on a sensor chip optically.

T1 sequence (P07766 23-126 limits assumed): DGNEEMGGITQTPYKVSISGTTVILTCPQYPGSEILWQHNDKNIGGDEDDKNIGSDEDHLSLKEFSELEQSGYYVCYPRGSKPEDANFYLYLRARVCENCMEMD

B1: TR01H071-E22Hh/none-Hi-Kn010G3/L0226-k0 (antibody, human IgG1, kappa, L234A L235A, N297A)
heavy: QVQLVESGGGLVQPGRSLRLSCAASGFTFSNAWMHWVRQAPGKGLEWVAQIKDKSNNYATYYAESVKGRFTISRADSKNSIYLQMNSLKTEDTAVYYCRYVHYAASYGVDIWGQGTTVTVSSASTKGPSVFPLAPSSKSTSGGTAALGCLVKDYFPEPVTVSWNSGALTSGVHTFPAVLQSSGLYSLSSVVTVPSSSLGTQTYICNVNHKPSNTKVDKKVEPKSCDKTHTCPPCPAPEAAGGPSVFLFPPKPKDTLMISRTPEVTCVVVDVSHEDPEVKFNWYVDGVEVHNAKTKPREEQYASTYRVVSVLTVLHQDWLNGKEYKCKVSNKALPAPIEKTISKAKGQPREPQVYTLPPSRCELTKNQVSLSCAVKGFYPSDIAVEWESNGQPENNYKTTPPVLDSDGSFFLVSKLTVDKSRWQQGNVFSCSVMHEALHNHYTQKSLSLSPDYKDDDDK
chain: EPKSSDKTHTCPPCPAPELLGGPSVFLFPPKPKDTLMISRTPEVTCVVVDVSHEDPEVKFNWYVDGVEVHNAKTKPREEQYNSTYRVVSVLTVLHQDWLNGKEYKCKVSNKALPAPIEKTISKAKGQPREPQVCTLPPSRDELTKNQVSLWCLVKGFYPSDIAVEWESNGQPENNYKTTPPVLDSDGSFFLYSKLTVDKSRWQQGNVFSCSVMHEALHNRYTQKSLSLSP
light: DIVMTQSPLSLPVTPGEPASISCRSSQSPVHSNRNTYIHWYQQKPGQAPRLLIYKVSNRFSGVPDRFSGSGSGTDFTLKISRVEAEDVGVYYCIQGTQVPYTFGQGTKLEIKRTVAAPSVFIFPPSDEQLKSGTASVVCLLNNFYPREAKVQWKVDNALQSGNSQESVTEQDSKDSTYSLSSTLTLSKADYEKHKVYACEVTHQGLSSPVTKSFNRGEC
notes: single-arm
By Kd is commonly meant the equilibrium constant for the complex coming apart. Higher therefore signals a looser complex. B1 came in with a Kd of 25.1 nM.

B2: TR01H076-E22Hh/none-Hi-Kn010G3/L0000-k0 (antibody, human IgG1, kappa, L234A L235A, N297A)
heavy: QVQLVESGGGVVQPGGSLRLSCAASGFTFSNAWMHWVRQAPGKGLEWVAQIKDKSQNYATYYAESVKGRFTISRADSKNSIYLQMNSLKTEDTAVYYCRYVHYAASYGVDYWGQGTTVTVSSASTKGPSVFPLAPSSKSTSGGTAALGCLVKDYFPEPVTVSWNSGALTSGVHTFPAVLQSSGLYSLSSVVTVPSSSLGTQTYICNVNHKPSNTKVDKKVEPKSCDKTHTCPPCPAPEAAGGPSVFLFPPKPKDTLMISRTPEVTCVVVDVSHEDPEVKFNWYVDGVEVHNAKTKPREEQYASTYRVVSVLTVLHQDWLNGKEYKCKVSNKALPAPIEKTISKAKGQPREPQVYTLPPSRCELTKNQVSLSCAVKGFYPSDIAVEWESNGQPENNYKTTPPVLDSDGSFFLVSKLTVDKSRWQQGNVFSCSVMHEALHNHYTQKSLSLSPDYKDDDDK
chain: EPKSSDKTHTCPPCPAPELLGGPSVFLFPPKPKDTLMISRTPEVTCVVVDVSHEDPEVKFNWYVDGVEVHNAKTKPREEQYNSTYRVVSVLTVLHQDWLNGKEYKCKVSNKALPAPIEKTISKAKGQPREPQVCTLPPSRDELTKNQVSLWCLVKGFYPSDIAVEWESNGQPENNYKTTPPVLDSDGSFFLYSKLTVDKSRWQQGNVFSCSVMHEALHNRYTQKSLSLSP
light: DIVMTQSPLSLPVTPGEPASISCRSSQSLVHSNRNTYLHWYQQKPGQAPRLLIYKVSNRFSGVPDRFSGSGSGTDFTLKISRVEAEDVGVYYCGQGTQVPYTFGQGTKLEIKRTVAAPSVFIFPPSDEQLKSGTASVVCLLNNFYPREAKVQWKVDNALQSGNSQESVTEQDSKDSTYSLSSTLTLSKADYEKHKVYACEVTHQGLSSPVTKSFNRGEC
notes: single-arm
Consider B2, for which binding was characterised by a dissociation constant (Kd) of 47.8 nM.

B3: TR01H081-E22Hh/none-Hi-Kn010G3/L0000-k0 (antibody, human IgG1, kappa, L234A L235A, N297A)
heavy: QVQLVESGGGLVQPGRSLRLSCAASGFTFSNAWMHWVRQAPGKGLEWVAQIKDKSQNYATYYAESVKGRFTISRADSKNSIYLQMNSLKTEDTAVYYCRYVHYAAGYGVDIWGQGTTVTVSSASTKGPSVFPLAPSSKSTSGGTAALGCLVKDYFPEPVTVSWNSGALTSGVHTFPAVLQSSGLYSLSSVVTVPSSSLGTQTYICNVNHKPSNTKVDKKVEPKSCDKTHTCPPCPAPEAAGGPSVFLFPPKPKDTLMISRTPEVTCVVVDVSHEDPEVKFNWYVDGVEVHNAKTKPREEQYASTYRVVSVLTVLHQDWLNGKEYKCKVSNKALPAPIEKTISKAKGQPREPQVYTLPPSRCELTKNQVSLSCAVKGFYPSDIAVEWESNGQPENNYKTTPPVLDSDGSFFLVSKLTVDKSRWQQGNVFSCSVMHEALHNHYTQKSLSLSPDYKDDDDK
chain: EPKSSDKTHTCPPCPAPELLGGPSVFLFPPKPKDTLMISRTPEVTCVVVDVSHEDPEVKFNWYVDGVEVHNAKTKPREEQYNSTYRVVSVLTVLHQDWLNGKEYKCKVSNKALPAPIEKTISKAKGQPREPQVCTLPPSRDELTKNQVSLWCLVKGFYPSDIAVEWESNGQPENNYKTTPPVLDSDGSFFLYSKLTVDKSRWQQGNVFSCSVMHEALHNRYTQKSLSLSP
light: DIVMTQSPLSLPVTPGEPASISCRSSQSLVHSNRNTYLHWYQQKPGQAPRLLIYKVSNRFSGVPDRFSGSGSGTDFTLKISRVEAEDVGVYYCGQGTQVPYTFGQGTKLEIKRTVAAPSVFIFPPSDEQLKSGTASVVCLLNNFYPREAKVQWKVDNALQSGNSQESVTEQDSKDSTYSLSSTLTLSKADYEKHKVYACEVTHQGLSSPVTKSFNRGEC
notes: single-arm
The molecule B3 returned a Kd of 15.6 nM.

B4: TR01H072-E22Hh/none-Hi-Kn010G3/L0000-k0 (antibody, human IgG1, kappa, L234A L235A, N297A)
heavy: QVQLVESGGGLVQPGRSLRLSCAASGFTFSNAWMHWVRQAPGKGLEWVAQIKDKSQNYATYYAESVKGRFTISRADSKNSIYLQMNSLKTEDTAVYYCRYVHYAASYGVDIWGQGTTVTVSSASTKGPSVFPLAPSSKSTSGGTAALGCLVKDYFPEPVTVSWNSGALTSGVHTFPAVLQSSGLYSLSSVVTVPSSSLGTQTYICNVNHKPSNTKVDKKVEPKSCDKTHTCPPCPAPEAAGGPSVFLFPPKPKDTLMISRTPEVTCVVVDVSHEDPEVKFNWYVDGVEVHNAKTKPREEQYASTYRVVSVLTVLHQDWLNGKEYKCKVSNKALPAPIEKTISKAKGQPREPQVYTLPPSRCELTKNQVSLSCAVKGFYPSDIAVEWESNGQPENNYKTTPPVLDSDGSFFLVSKLTVDKSRWQQGNVFSCSVMHEALHNHYTQKSLSLSPDYKDDDDK
chain: EPKSSDKTHTCPPCPAPELLGGPSVFLFPPKPKDTLMISRTPEVTCVVVDVSHEDPEVKFNWYVDGVEVHNAKTKPREEQYNSTYRVVSVLTVLHQDWLNGKEYKCKVSNKALPAPIEKTISKAKGQPREPQVCTLPPSRDELTKNQVSLWCLVKGFYPSDIAVEWESNGQPENNYKTTPPVLDSDGSFFLYSKLTVDKSRWQQGNVFSCSVMHEALHNRYTQKSLSLSP
light: DIVMTQSPLSLPVTPGEPASISCRSSQSLVHSNRNTYLHWYQQKPGQAPRLLIYKVSNRFSGVPDRFSGSGSGTDFTLKISRVEAEDVGVYYCGQGTQVPYTFGQGTKLEIKRTVAAPSVFIFPPSDEQLKSGTASVVCLLNNFYPREAKVQWKVDNALQSGNSQESVTEQDSKDSTYSLSSTLTLSKADYEKHKVYACEVTHQGLSSPVTKSFNRGEC
notes: single-arm
Molecule B4 gave a Kd of 20.3 nM.

B5: TR01H074-E22Hh/none-Hi-Kn010G3/L0000-k0 (antibody, human IgG1, kappa, L234A L235A, N297A)
heavy: QVQLVESGGGVVQPGGSLRLSCAASGFTFSNAWMHWVRQAPGKGLEWVAQIKDKSQNYATYYAESVKGRFTISRADSKNSIYLQMNSLKTEDTAVYYCRYVHYAASYGVDIWGQGTTVTVSSASTKGPSVFPLAPSSKSTSGGTAALGCLVKDYFPEPVTVSWNSGALTSGVHTFPAVLQSSGLYSLSSVVTVPSSSLGTQTYICNVNHKPSNTKVDKKVEPKSCDKTHTCPPCPAPEAAGGPSVFLFPPKPKDTLMISRTPEVTCVVVDVSHEDPEVKFNWYVDGVEVHNAKTKPREEQYASTYRVVSVLTVLHQDWLNGKEYKCKVSNKALPAPIEKTISKAKGQPREPQVYTLPPSRCELTKNQVSLSCAVKGFYPSDIAVEWESNGQPENNYKTTPPVLDSDGSFFLVSKLTVDKSRWQQGNVFSCSVMHEALHNHYTQKSLSLSPDYKDDDDK
chain: EPKSSDKTHTCPPCPAPELLGGPSVFLFPPKPKDTLMISRTPEVTCVVVDVSHEDPEVKFNWYVDGVEVHNAKTKPREEQYNSTYRVVSVLTVLHQDWLNGKEYKCKVSNKALPAPIEKTISKAKGQPREPQVCTLPPSRDELTKNQVSLWCLVKGFYPSDIAVEWESNGQPENNYKTTPPVLDSDGSFFLYSKLTVDKSRWQQGNVFSCSVMHEALHNRYTQKSLSLSP
light: DIVMTQSPLSLPVTPGEPASISCRSSQSLVHSNRNTYLHWYQQKPGQAPRLLIYKVSNRFSGVPDRFSGSGSGTDFTLKISRVEAEDVGVYYCGQGTQVPYTFGQGTKLEIKRTVAAPSVFIFPPSDEQLKSGTASVVCLLNNFYPREAKVQWKVDNALQSGNSQESVTEQDSKDSTYSLSSTLTLSKADYEKHKVYACEVTHQGLSSPVTKSFNRGEC
notes: single-arm
In turn, B5 gave a Kd of 29.1 nM.

B6: TR01H073-E22Hh/none-Hi-Kn010G3/L0000-k0 (antibody, human IgG1, kappa, L234A L235A, N297A)
heavy: QVQLVESGGGLVQPGRSLRLSCAASGFTFSNAWMHWVRQAPGKGLEWVAQIKDKSQNYATYYAESVKGRFTISRDDSKNSLYLQMNSLKTEDTAVYYCRYVHYAASYGVDIWGQGTTVTVSSASTKGPSVFPLAPSSKSTSGGTAALGCLVKDYFPEPVTVSWNSGALTSGVHTFPAVLQSSGLYSLSSVVTVPSSSLGTQTYICNVNHKPSNTKVDKKVEPKSCDKTHTCPPCPAPEAAGGPSVFLFPPKPKDTLMISRTPEVTCVVVDVSHEDPEVKFNWYVDGVEVHNAKTKPREEQYASTYRVVSVLTVLHQDWLNGKEYKCKVSNKALPAPIEKTISKAKGQPREPQVYTLPPSRCELTKNQVSLSCAVKGFYPSDIAVEWESNGQPENNYKTTPPVLDSDGSFFLVSKLTVDKSRWQQGNVFSCSVMHEALHNHYTQKSLSLSPDYKDDDDK
chain: EPKSSDKTHTCPPCPAPELLGGPSVFLFPPKPKDTLMISRTPEVTCVVVDVSHEDPEVKFNWYVDGVEVHNAKTKPREEQYNSTYRVVSVLTVLHQDWLNGKEYKCKVSNKALPAPIEKTISKAKGQPREPQVCTLPPSRDELTKNQVSLWCLVKGFYPSDIAVEWESNGQPENNYKTTPPVLDSDGSFFLYSKLTVDKSRWQQGNVFSCSVMHEALHNRYTQKSLSLSP
light: DIVMTQSPLSLPVTPGEPASISCRSSQSLVHSNRNTYLHWYQQKPGQAPRLLIYKVSNRFSGVPDRFSGSGSGTDFTLKISRVEAEDVGVYYCGQGTQVPYTFGQGTKLEIKRTVAAPSVFIFPPSDEQLKSGTASVVCLLNNFYPREAKVQWKVDNALQSGNSQESVTEQDSKDSTYSLSSTLTLSKADYEKHKVYACEVTHQGLSSPVTKSFNRGEC
notes: single-arm
With B6, the Kd worked out at 59.7 nM.
